From the supplement of paper PMC7877785
± gives the uncertainty stated by the source.

Assay: self-splicing fitness, log relative to wild type (ln ratio); higher = more splicing; Tetrahymena group I intron in knt gene, E. coli kanamycin selection, DiMSum; sequences stand for … in CUCUCU…GGAGGGAAAAGUUAUCAGGCAUGCACCUGGUAGCUAGUCUUUAAACCAAUAGAUUGCAUCGGUUUAAAAGGCAAGACCGUCAAAUUGCGGGAAAGGGGUCAACAGCCGUUCAGUACCAAGUCUCAGGGGAAACUUUGAGAUGGCCUUGCAAAGGGUAUGGUAAUAAGCUGACGGACAUGGUCCUAACCACGCAGCCAAGUCCUAAGUCAACAGAUCUUCUGUUGAUAUGGAUGCAGUUCACAGACUAAAUGUCGGUCGGGGAAGAUGUAUUCUUCUCAUAAGAUAUAGUCGGACCUCUCCUUAAUGGGAGCUAGCGGAUGAAGUGAUGCAACACUGGAGCCGCUGGGAACUAAUUUGUAUGCGAAAGUAUAUUGAUUAGUUUUGGAGUACUCGUGGUCG
Outline: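 The eight P1ex-region nucleotides of an intron in the knt kanamycin-resistance gene on pET-22b(+) were all randomised and the library put into E. coli BL21(DE3). Six replicate transformations were grown overnight at 37°C or 30°C on LB agar with or without 25 μg/mL kanamycin, together with 100 μg/mL carbenicillin, 50 μM IPTG and 0.2% rhamnose. Colonies were pooled and amplicon-sequenced on an Illumina HiSeq 2500. Fitness from DiMSum is the error-weighted combination of wild-type-normalised replicate fold changes, kanamycin over none.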

Sequence	self-splicing fitness (ln) (30 °C)	self-splicing fitness (ln) (37 °C)
GUGGAGCAAUAUUACGAUUG	-1.98 ± 0.39	
GUGGAGCAAUAUUACGCAGG		-1.19 ± 0.28
GUGGAGCAAUAUUACGCAUC		-2.03 ± 0.41
GUGGAGCAAUAUUACGCAUU	-2.84 ± 0.22	-1.14 ± 0.13
GUGGAGCAAUAUUACGCGAG		-1.53 ± 0.38
GUGGAGCAAUAUUACGGAAU	-3.23 ± 0.16	-1.33 ± 0.17
GUGGAGCAAUAUUACGGAUU	-3.15 ± 0.47	
GUGGAGCAAUAUUACGGGUG	-3.8 ± 0.37	-2.9 ± 0.47
GUGGAGCAAUAUUACGGUAC	-2.81 ± 0.14	-1.71 ± 0.15
GUGGAGCAAUAUUACGGUAU	-2.04 ± 0.23	-1.71 ± 0.27
GUGGAGCAAUAUUACGUAGG	-3.17 ± 0.29	-0.82 ± 0.24
GUGGAGCAAUAUUACGUCCU	-1.24 ± 0.14	-0.219 ± 0.14
GUGGAGCAAUAUUACGUGGA	-2.92 ± 0.28	-3.07 ± 0.36
GUGUAGCAAUAUUACGAACA	-1.66 ± 0.16	-0.829 ± 0.12
GUGUAGCAAUAUUACGACUU	-0.0355 ± 0.15	-0.00223 ± 0.19
GUGUAGCAAUAUUACGAGGG	-3.38 ± 0.44	-2.99 ± 0.47
GUGUAGCAAUAUUACGAGUA		-1.56 ± 0.19
GUGUAGCAAUAUUACGAGUU	-2.8 ± 0.15	-1.39 ± 0.11
GUGUAGCAAUAUUACGAUGG	-2.91 ± 0.19	-1.81 ± 0.18
GUGUAGCAAUAUUACGCCAC		-1.07 ± 0.48
GUGUAGCAAUAUUACGCUAU		-1.15 ± 0.24
GUGUAGCAAUAUUACGCUGG	-3.59 ± 0.38	-1.54 ± 0.22
GUGUAGCAAUAUUACGGAGA		-2.36 ± 0.45
GUGUAGCAAUAUUACGGAGU	-2.96 ± 0.17	-2.61 ± 0.29
GUGUAGCAAUAUUACGGAUG	-3.29 ± 0.41	-0.59 ± 0.35

Sequence	self-splicing fitness (ln) (30 °C)	self-splicing fitness (ln) (37 °C)
GUGUAGCAAUAUUACGGCCU	-0.169 ± 0.073	0.685 ± 0.098
GUGUAGCAAUAUUACGGCUC	-0.377 ± 0.064	0.195 ± 0.077
GUGUAGCAAUAUUACGGCUU	-0.494 ± 0.078	0.195 ± 0.11
GUGUAGCAAUAUUACGGGCA	-0.665 ± 0.18	-1.29 ± 0.19
GUGUAGCAAUAUUACGGGGG	-3.23 ± 0.41	-2.07 ± 0.43
GUGUAGCAAUAUUACGGUCA	-1.36 ± 0.14	-2.06 ± 0.12
GUGUAGCAAUAUUACGGUGA	-1.45 ± 0.11	-0.916 ± 0.14
GUGUAGCAAUAUUACGGUUU	-1.04 ± 0.086	-0.738 ± 0.11
GUGUAGCAAUAUUACGUAUA	-2.85 ± 0.49	-0.725 ± 0.15
GUGUAGCAAUAUUACGUUUC	-2.63 ± 0.13	-1.92 ± 0.13
GUUAAGCAAUAUUACGACUC	0.708 ± 0.15	0.214 ± 0.17
GUUAAGCAAUAUUACGAGAU	-2.48 ± 0.3	-1.81 ± 0.35
GUUAAGCAAUAUUACGAUUG	-3.09 ± 0.34	-1.63 ± 0.34
GUUAAGCAAUAUUACGCAAA	-2.21 ± 0.27	-2.21 ± 0.22
GUUAAGCAAUAUUACGCAUC	-2.3 ± 0.1	-0.951 ± 0.095
GUUAAGCAAUAUUACGCCUG	-0.512 ± 0.11	-0.224 ± 0.12
GUUAAGCAAUAUUACGCGAA	-2.09 ± 0.21	0.0507 ± 0.2
GUUAAGCAAUAUUACGCUAU		-0.862 ± 0.32
GUUAAGCAAUAUUACGCUCU	-1.24 ± 0.1	-1.12 ± 0.11
GUUAAGCAAUAUUACGGAUA	-2.09 ± 0.12	-1.61 ± 0.16
GUUAAGCAAUAUUACGGCUU	-1.22 ± 0.11	-0.546 ± 0.14
GUUAAGCAAUAUUACGGGUC	-1.33 ± 0.34	-1.77 ± 0.41
GUUAAGCAAUAUUACGGUGC	-2.42 ± 0.1	-1.23 ± 0.12
GUUAAGCAAUAUUACGUAAC	-3.15 ± 0.44	
GUUAAGCAAUAUUACGUAAU	-2.09 ± 0.079	-1.49 ± 0.089

Sequence	self-splicing fitness (ln) (30 °C)	self-splicing fitness (ln) (37 °C)
GUUAAGCAAUAUUACGUACG	-1.83 ± 0.14	-0.662 ± 0.14
GUUAAGCAAUAUUACGUAUA	-1.79 ± 0.14	-1.54 ± 0.15
GUUAAGCAAUAUUACGUCCA	-1.21 ± 0.088	0.057 ± 0.097
GUUAAGCAAUAUUACGUCUA	-0.524 ± 0.1	-0.261 ± 0.099
GUUAAGCAAUAUUACGUGAA	-1.75 ± 0.11	-1.47 ± 0.16
GUUAAGCAAUAUUACGUGGU	-2.79 ± 0.15	-2.35 ± 0.19
GUUAAGCAAUAUUACGUGUG	-1.93 ± 0.093	-1.21 ± 0.098
GUUAAGCAAUAUUACGUUAU	-1.62 ± 0.12	-0.968 ± 0.13
GUUAAGCAAUAUUACGUUCC	-2.16 ± 0.18	-0.875 ± 0.23
GUUCAGCAAUAUUACGAAUU	-1.52 ± 0.14	-1.14 ± 0.14
GUUCAGCAAUAUUACGAUAG	-2.65 ± 0.2	-1.53 ± 0.18
GUUCAGCAAUAUUACGAUGA	-1.07 ± 0.13	-0.686 ± 0.19
GUUCAGCAAUAUUACGAUUC	0.118 ± 0.095	0.523 ± 0.11
GUUCAGCAAUAUUACGCAAC	-2.96 ± 0.22	-1.48 ± 0.21
GUUCAGCAAUAUUACGCAUA	-0.815 ± 0.083	0.0985 ± 0.1
GUUCAGCAAUAUUACGCAUC	-0.592 ± 0.12	-0.361 ± 0.14
GUUCAGCAAUAUUACGCCAG	-2.06 ± 0.29	
GUUCAGCAAUAUUACGCCCC	-0.521 ± 0.16	-0.42 ± 0.19
GUUCAGCAAUAUUACGCGUG	-0.852 ± 0.083	0.166 ± 0.088
GUUCAGCAAUAUUACGCUAC	-3.75 ± 0.29	-2.67 ± 0.26
GUUCAGCAAUAUUACGCUGG	-4.05 ± 0.27	-1.53 ± 0.13
GUUCAGCAAUAUUACGCUGU	-3.2 ± 0.17	-1.65 ± 0.12
GUUCAGCAAUAUUACGGACU	-3.7 ± 0.14	-2.88 ± 0.18
GUUCAGCAAUAUUACGGAGA		-1.33 ± 0.29
GUUCAGCAAUAUUACGGCGC	-0.314 ± 0.094	0.633 ± 0.13

Sequence	self-splicing fitness (ln) (30 °C)	self-splicing fitness (ln) (37 °C)
GUUCAGCAAUAUUACGGCUA	-0.564 ± 0.14	-0.232 ± 0.15
GUUCAGCAAUAUUACGGCUG	-3.59 ± 0.23	-2.38 ± 0.26
GUUCAGCAAUAUUACGGGGC	-2.68 ± 0.16	-2.78 ± 0.21
GUUCAGCAAUAUUACGUAAC	-0.462 ± 0.17	-0.994 ± 0.26
GUUCAGCAAUAUUACGUAUG	-2.03 ± 0.1	-0.968 ± 0.099
GUUCAGCAAUAUUACGUCUA	-1.14 ± 0.14	-0.132 ± 0.13
GUUCAGCAAUAUUACGUGAA	-1.32 ± 0.087	-0.784 ± 0.11
GUUCAGCAAUAUUACGUUCU	-0.734 ± 0.073	-0.74 ± 0.087
GUUCAGCAAUAUUACGUUGC	-3.13 ± 0.12	-1.7 ± 0.11
GUUGAGCAAUAUUACGAAUU	-3.8 ± 0.34	-1.24 ± 0.34
GUUGAGCAAUAUUACGACAG	-4.09 ± 0.36	-2.49 ± 0.28
GUUGAGCAAUAUUACGACGU	-0.544 ± 0.11	-0.345 ± 0.12
GUUGAGCAAUAUUACGAGGU	-3.2 ± 0.28	
GUUGAGCAAUAUUACGAUGG	-3.31 ± 0.47	-2.7 ± 0.29
GUUGAGCAAUAUUACGAUGU	-2.43 ± 0.21	-1.03 ± 0.18
GUUGAGCAAUAUUACGGACG		-1.42 ± 0.29
GUUGAGCAAUAUUACGGAUA	-0.148 ± 0.24	-1.65 ± 0.45
GUUGAGCAAUAUUACGGCUU	-2.84 ± 0.28	-1.25 ± 0.37
GUUGAGCAAUAUUACGGGUU	-3.57 ± 0.27	-2 ± 0.21
GUUGAGCAAUAUUACGGUGG	-2.81 ± 0.33	-2.81 ± 0.48
GUUGAGCAAUAUUACGUCUG	-2.34 ± 0.44	-2.04 ± 0.4
GUUGAGCAAUAUUACGUUAG	-4.58 ± 0.41	-2.82 ± 0.43
GUUGAGCAAUAUUACGUUGA	-3.13 ± 0.29	-2.9 ± 0.33
GUUUAGCAAUAUUACGAAUA	-1.58 ± 0.43	-0.203 ± 0.3
GUUUAGCAAUAUUACGACAU	-0.224 ± 0.014	0.063 ± 0.033
